Where a chain is given by its changes, count along the chain named.
B1: RAP: receptor associated protein, a general inhibitor of LRP-1 (protein, UniProt P30533 35-357, looked up)
Alpha-2-macroglobulin …: YSREKNQPKPSPKRESGEEFRMEKLNQLWEKAQRLHLPPVRLAELHADLKIQERDELAWKKLKLDGLDEDGEKEARLIRNLNVILAKYGLDGKKDARQVTSNSLSGTQEDGLDDPRLEKLWHKAKTSGKFSGEELDKLWREFLHHKEKVHEYNVLLETLSRTEEIHENVISPSDLSDIKGSVLHSRHTELKEKLRSINQGLDRLRRVSHQGYSTEAEFEEPRVIDLWDLAQSANLTDKELEAFREELKHFEAKIEKHNHYQKQLEIAHEKLRHAESVGDGERVSRSREKHALLEGRTKELGYTVKKHLQDLSGRISRARHNEL
B2: Cluster II: LRP-1 peptide, amino acids 854-1184 of LRP-1; contains 8 ligand binding domains (protein)
chain: CQPGEFACANSRCIQERWKCDGDNDCLDNSDEAPALCHQHTCPSDRFKCENNRCIPNRWLCDGDNDCGNSEDESNATCSARTCPPNQFSCASGRCIPISWTCDLDDDCGDRSDESASCAYPTCFPLTQFTCNNGRCININWRCDNDNDCGDNSDEAGCSHSCSSTQFKCNSGRCIPEHWTCDGDNDCGDYSDETHANCTNQATRPPGGCHTDEFQCRLDGLCIPLRWRCDGDTDCMDSSDEKSCEGVTHVCDPSVKFGCKDSARCISKAWVCDGDNDCEDNSDEENCESLACRPPSHPCANNTSVCLPPDKLCDGNDDCGDGSDEGELCDQ

Assays:
HuTIMP-3 [1] = molecular target: T1, HuTIMP-3 (Homo sapiens, UniProt P35625); assay: Indirect binding ELISA with TIMP-3 presented via anti-TIMP-3 neutralizing antibody; conditions: human TIMP-3
T1 sequence (P35625 24-211): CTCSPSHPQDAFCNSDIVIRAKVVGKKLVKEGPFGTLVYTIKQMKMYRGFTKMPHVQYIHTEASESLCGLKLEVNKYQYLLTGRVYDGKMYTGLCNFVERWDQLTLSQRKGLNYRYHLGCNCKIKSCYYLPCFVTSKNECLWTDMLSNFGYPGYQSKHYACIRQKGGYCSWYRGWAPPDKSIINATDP
Experimental: After incubation, the plate contents are discarded and 250 microL/well of blocking buffer (1% BSA, TBS [pH 7.5], 1 mM CaCl2) is added to the plate which is incubated with shaking for 1 hour at room temperature. The plate is then washed three times with 200 microL/well with wash buffer 1 (TBS [pH 7.5], 1 mM CaCl2) followed by the addition of 100 microL of 20 nM recombinant human TIMP-3. The plate is incubated at room temperature for 1 hour. The LRP-1 peptides are titrated as described previously, and 100 microL/well of the diluted LRP-1 peptide titration is added to the TIMP-3 coated plate and allowed to bind for 1.5 hour at room temperature with shaking. After incubation, the plate is washed and the ELISA performed substantially as described previously for the direct binding ELISA.

HuTIMP-3 [2] = molecular target: T1, HuTIMP-3; assay: Directly coated TIMP-3 binding ELISA (human); conditions: human TIMP-3; for EC50: direct
[3] = tested on: biotinylated recombinant human or mouse TIMP-3; assay: TIMP-3 AlphaScreen binding assay
Experimental: Peptides were also evaluated by AlphaScreen® (Amplified Luminescent Proximity Homogeneous Assay; PerkinElmer, Waltham, Mass.) a very sensitive non-radioactive homogeneous assay technology that allows the screening of a large range of biological interactions and activities, substantially according to the manufacturer's instructions. Briefly, all dilutions are made in AlphaScreen® Buffer: [40 mM HEPES pH 7.5, 100 mM NaCl, 1 mM CaCl2, 0.1% BSA, 0.05% Tween-20]. The LRP-1 peptides are titrated in a separate polypropylene 96-well plate (Falcon) starting at 4 microM concentration and then diluted serially 3-fold for 12-points, with the last point buffer only. First 2 microL/well of protein titration curve is added to white, small volume, 384-well assay plate (Greiner Bio-One, Stonehouse, UK) in duplicate. Next, 2 microL of biotinylated (AFS, in-house conjmicroGation) recombinant human or mouse TIMP-3, is added at 12 nM (or 3 nM final assay concentration) to the assay plate. Lastly, in subdued light 4 microL of a mixture of streptavidin donor beads, anti-mouse IgG acceptor beads (PerkinElmer) both diluted to 20 microG/mL (10 microG/mL final assay concentration) and 2 nM (1 nM final concentration) rat-anti-HA (clone3F10)-HRP (Roche Diagnostics) is added to the plates. Plates containing 8 microL final assay volume are covered with TopSeal A (to prevent evaporation), spun quickly at 1000 rpm, and incubated overnight (covered with foil to prevent light exposure) before reading on Fusion plate reader (PerkinElmer) using AlphaScreen® parameters (excitation 680 nm and emission 520-620 nm). Data is analyzed using GraphPad Prism 4.01 software. Binding to TIMP-3 is reported as total signal (cps).

HTB-94 cells = assay: Accumulation of TIMP-3 in the medium of cultured HTB-94 cells; type: cell-based
Experimental: This example describes an assay to evaluate the accumulation of TIMP-3 in the medium of cultured cells. HTB-94™ cells (a chondrocytic cell line available from the American Type Culture Collection, Manassas, Va.) are plated to 24-well tissue culture plates at 1×10̂5 cells per well in 1 ml growth medium (RPM11640, 10% FBS, 1% PSG), and incubated at 37 C, 5% CO2 overnight. The cells are then washed once with PBS, and the wells are replenished with 250 microL serum-free medium (RPM11640, 1% PSG; designated SF in the tables below) to which is added the polypeptide being tested or a control (for example medium containing heparin, 1 mg/ml). Proteins to be tested are diluted to appropriate concentrations, for example as shown in the Tables below, and added to the cells. Cells are then incubated at 37 C, 5% CO2 for two additional days, day 2 conditioned medium (CM) samples are collected and clarified by centrifugation (i.e., for 5 minutes at 10K RPM) and the supernatant fluid is collected and stored at −20 C until assayed. Analysis is done on 100 microL CM samples, either by Western blot or by using a standard human TIMP-3 ELISA as per the manufacturer's protocol (R&D Systems Inc., Minneapolis, Minn.).

MuTIMP-3 = molecular target: T2, MuTIMP-3 (Mus musculus, UniProt P39876); assay: Directly coated TIMP-3 binding ELISA (mouse); conditions: mouse TIMP-3; for EC50: direct
T2 sequence (P39876 24-211): T1 sequence (P35625 24-211) with T51S, D87E, Q103H, I183S

A549 cells = assay: Binding and internalization of exogenous TIMP-3 by confocal microscopy; type: cell-based, human; conditions: in the presence of heparin
Experimental: This example describes the internalization of exogenous TIMP-3 as examined by confocal microscopy. A549 cells (a continuous tumor-cell line from a human lung carcinoma with properties of type II alveolar epithelial cells, either wild-type or A549 cells lacking the LRP-1 gene) were incubated typically with 1 microG/ml TIMP-3 for 30 minutes at 4 degrees, with or without various pre-treatments (including heparin), then washed, fixed and stained with a fluorescently labeled anti-TIMP-3 antibody, or washed and then incubated further at 4 or 37 degrees before fixation and staining. Cells were also assayed for the accumulation of TIMP-3 in the culture medium, by Western blot or ELISA, substantially as described herein.

[4] = tested on: cultured chondrocytic cells; conditions: cited from earlier work
[5] = molecular target: T3, inhibition of MMP-13 by TIMP-3 (Homo sapiens, UniProt P35625); assay: MMP-13 inhibition assay: effect of test molecules on inhibition of MMP-13 by TIMP-3; type: biochemical
T3 construct: purchased Calbiochem/EMD (active MMP-13)
T3 sequence (P35625 24-211): T1 sequence (P35625 24-211)
Experimental: Briefly, test molecules are titrated in assay buffer and added to black polystyrene 96 or 384 well assay plate (Griener Bio-One, Germany). The concentrations of the test molecules are dependant on the activity of the molecule; for example, titrations may begin at 1000, 2000 or 3000 nM and use five-fold dilutions for titration, although other types of titrations may be used or a single concentration may be tested. […] Active MMP-13 (Calbiochem/EMD,) is diluted in assay buffer to give a final assay concentration of 1.46 nM added to the test molecule titration/TIMP-3 mixture and incubated for 10 minutes at room temperature in a final volume of 50 microL. Alternatively, pro-MMP-13 (R & D Systems, Minneapolis, Minn.) is activated with aminophenyl mercuric acetate (APMA; Calbiochem/EMD,) for 2 hours at 37 degrees C., and used in the assay.
A fluorogenic substrate such as Mca-PLGL-Dpa-AR-NH2 Fluorogenic MMP Substrate or Mca-KPLGL-Dpa-AR-NH2 Fluorogenic Peptide Substrate (R & D Systems) is prepared to a final assay concentration of 20 microM in assay buffer, and added to the MMP-13 enzyme/huTIMP-3/test molecule solution. MMP-13 activity is measured kinetically for 20 minutes using Molecular Devices fluorescent plate reader. The effect of the molecules being tested is expressed as percent of expected maximum TIMP-3 inhibition of MMP-13 enzymatic activity.

TIMP-3 = assay: Binding ELISA of LRP-1 peptides to TIMP-3 (Table 2; format and species not specified); set-up: species or system human or mouse

Molecule | AlphaScreen total signal (cps) Assay 1 [3] | AlphaScreen total signal (cps) Assay 2 [3] | TIMP-3 (ng/ml) in conditioned medium (HTB-94 cells; Table 6, peptides 2 microM) [ng/mL] | EC50 (HuTIMP-3 [2]) [nM] | TIMP-3 (ng/ml) in conditioned medium (HTB-94 cells; Table 7, peptides 2 microM) [ng/mL] | EC50 (MuTIMP-3) [nM] | other results
LA4: LRP-1 peptide monomer, amino acids 895-930 | 2,200 cps | 2,000 cps | 1.07 |  |  |  | EC50 in TIMP-3 Binding ELISA, Indirect HuTIMP-3 (HuTIMP-3 [1]): no binding; EC50 in TIMP-3 Binding ELISA, Direct HuTIMP-3 (HuTIMP-3 [2]): no binding; EC50 in TIMP-3 Binding ELISA, Direct MuTIMP-3 (MuTIMP-3): no binding
LA5-6: LRP-1 peptide multimer, amino acids 931-1014 | 6,000 cps | 4,000 cps |  | > 1000 | 2.38 |  | 
LA7: LRP-1 peptide monomer, amino acids 1015- (end not printed) | 2,200 cps |  | 0.90 | > 1000 |  | > 1000 | EC50 (HuTIMP-3 [1]): > 1000 nM
LA8-10: LRP-1 peptide multimer, amino acids 1062- (end not printed) | 110,000 cps | 100,000 cps |  | > 1000 | 3.91 |  | 
LA15: LRP-1 peptide monomer, amino acids 2696- (end not printed) | 2,200 cps | 2,000 cps | 1.29 |  |  | > 1000 | 
LA28: LRP-1 peptide monomer, amino acids 3613-3653 | 2,200 cps |  |  | > 1000 | 0.99 | > 1000 | 
heparin [reference compound] |  |  |  |  |  |  | Binding of TIMP-3 to the cell surface (A549 cells): decreased; TIMP-3 (ng/ml) in conditioned medium (HTB-94 cells; Table 5, heparin control (1 mg/ml per method)): 10.98 ng/mL; TIMP-3 (ng/ml) in conditioned medium (HTB-94 cells; Table 6, heparin control (1 mg/ml per method)): 14.55 ng/mL; TIMP-3 (ng/ml) in conditioned medium (HTB-94 cells; Table 7, heparin control (1 mg/ml per method)): 26.15 ng/mL; TIMP-3 (ng/ml) in conditioned medium (HTB-94 cells; Table 8, heparin control (1 mg/ml per method)): 17.31 ng/mL
B1 |  |  |  |  |  |  | levels of TIMP-3 in the medium of cultured chondrocytic cells [4]: increases
B2 |  |  | 8.49 |  | 13.42 |  | Effect on TIMP-3's inhibition of MMP-13 (in words) [5]: minimal effect; Binding to TIMP-3 (affinity, in words) (TIMP-3): submicromolar affinity; TIMP-3 (ng/ml) in conditioned medium (HTB-94 cells; Table 5, polypeptide 0.5 microM, listed as C II (prep 1)): 1.99 ng/mL; TIMP-3 (ng/ml) in conditioned medium (HTB-94 cells; Table 5, polypeptide 0.5 microM, listed as C II (prep 2)): 1.35 ng/mL; TIMP-3 (ng/ml) in conditioned medium (HTB-94 cells; Table 5, polypeptide 1 microM, listed as C II (prep 1)): 2.23 ng/mL; TIMP-3 (ng/ml) in conditioned medium (HTB-94 cells; Table 5, polypeptide 1 microM, listed as C II (prep 2)): 1.71 ng/mL; TIMP-3 (ng/ml) in conditioned medium (HTB-94 cells; Table 5, polypeptide 2 microM, listed as C II (prep 1)): 5.18 ng/mL; TIMP-3 (ng/ml) in conditioned medium (HTB-94 cells; Table 5, polypeptide 2 microM, listed as C II (prep 2)): 1.92 ng/mL; TIMP-3 (ng/ml) in conditioned medium (HTB-94 cells; Table 8, polypeptide 0.5 microM): 1.59 ng/mL; TIMP-3 (ng/ml) in conditioned medium (HTB-94 cells; Table 8, polypeptide 1 microM): 1.94 ng/mL; TIMP-3 (ng/ml) in conditioned medium (HTB-94 cells; Table 8, polypeptide 2 microM): 2.76 ng/mL; Accumulation of TIMP-3 in conditioned medium by Western blot (HTB-94 cells; Western blot): enhanced accumulation of TIMP-3
